Measured values as given in US20240092908A1.

Key:
[1] = molecular target: fusion protein hPD1-HSA composed of a PD1 extracellular domain sequence and a human serum albumin sequence (human); test: ELISA, hPD1-HSA coated 200 ng/well, HRP anti-human IgG Fc
[2] = molecular target: fusion protein hPD1-HSA composed of a PD1 extracellular domain sequence and a human serum albumin sequence (human); test: competitive ELISA, hPD1-HSA coated; competitor bio-hPDL1-FC, HRP-Streptavidin

- EC50 [1]: 0.181 nM
- IC50 [2]: 1.72 nM
Substance: Keytruda ® (antibody)
